Changes are numbered by the printed parent chain. One block for each binder: values may come before it.
Experiments:
secreted, soluble furin [1] = target: T1, secreted, soluble furin (human, UniProt P09958 108-715, limits assumed); test: rapid furin inhibition assay; table lists substitutions with equal or enhanced inhibition of furin relative to the template
T1 construct: Secreted, soluble construct; also called human furin
Protocol: 3. Rapid screening of libraries. Libraries were introduced into E. coli BL21 (DE3) cells and individual, cloned transformants were grown by shaking at 37° C. in 200 μl LB containing […] kanamycin in 96-well, 0.45 μm GHP membrane filter plates (Gelman) (FIG. 2). When O.D. 600 values reached 0.4, 60 μl of culture were transferred to secondary 96-well plates (Falcon), adjusted to 10% glycerol, and stored at −80° C. These frozen stocks served as master copies of the libraries. IPTG was added to the cultures to a final concentration of 1 mM, and the cultures were allowed to express eglin c variants for one hour in the filter plate. Expressed eglin c variants were extracted from the cells with 50 mM Tris-HCl pH 8.0 containing 2 mM EDTA following freezing and thawing. These extracts were collected as filtrates by centrifugation of the filter plate above a second plate. The filtrates, representing partially purified eglin c variants, were analyzed using a rapid fluorescence-based assay for processing enzyme inhibition as described below in Section 5. […] Frozen cells were cultured in 50 to 100 ml culture volumes, and DNA maxipreps were performed; the DNA preparations were then sequenced by automated DNA sequencing. Selected variants were expressed and purified on a larger scale, and affinities for furin or Kex2 were examined quantitatively (see below).
5. Rapid protease inhibition assay. Novel eglin variants were diluted 50-fold and incubated with secreted, soluble furin (0.5 nM) for 15 min in 96-well plates. The furin substrate (Boc-Arg-Val-Arg-Arg-MCA) was added, and release of AMC was monitored continuously in a 96-well fluorescence plate reader for 20 min, as described under Example 1. […] The plasmid DNA encoding such eglin c variant inhibitors were isolated and sequenced.

secreted, soluble Kex2 [2] = target: T2, secreted, soluble Kex2 (Saccharomyces cerevisiae, UniProt P13134 114-613, limits assumed); test: enzyme inhibition, purified variant
T2 construct: Secreted, soluble construct; also called kexin
T2 sequence (looked up): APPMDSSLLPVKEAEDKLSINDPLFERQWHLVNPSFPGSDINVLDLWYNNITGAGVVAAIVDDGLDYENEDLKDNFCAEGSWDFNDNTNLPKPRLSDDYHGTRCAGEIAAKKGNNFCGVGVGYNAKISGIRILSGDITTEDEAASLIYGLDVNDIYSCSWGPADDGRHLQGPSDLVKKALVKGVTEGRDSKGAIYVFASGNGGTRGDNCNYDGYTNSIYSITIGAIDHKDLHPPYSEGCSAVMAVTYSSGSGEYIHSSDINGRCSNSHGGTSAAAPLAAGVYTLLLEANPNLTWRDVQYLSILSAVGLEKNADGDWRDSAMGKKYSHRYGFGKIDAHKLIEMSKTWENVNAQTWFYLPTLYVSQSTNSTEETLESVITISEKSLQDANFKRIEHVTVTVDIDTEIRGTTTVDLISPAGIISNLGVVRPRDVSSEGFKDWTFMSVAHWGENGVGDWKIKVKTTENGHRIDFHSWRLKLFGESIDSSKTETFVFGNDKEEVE
Protocol: (§1) Affinities of eglin variants with secreted, soluble Kex2 (hereafter “Kex2”; Brenner, C. and Fuller, R. S. (1992) Proc. Natl. Acad. Sci. USA 89: 922-926) and secreted, soluble furin (hereafter, “furin”; Bravo, D. A. et al (1994) J. Biol. Chem. 269: 25830-25837; and Komiyama & Fuller (2000) Biochemistry 39: 15156-15165) were measured by incubating variants with the enzymes (˜0.5 to 2.0 nM) for 45 min to 1 h at 21° C. in one of two enzyme assay buffers. For Kex2, the buffer was 200 mM Bistris (pH 7.27) containing 1 mM CaCl₂ and 0.1% Triton X-100; and for furin, the buffer was 20 mM NaMES (pH 7.0) containing 1 mM CaCl₂ and 0.1% Triton X-100 for furin. 100 to 200 μL aliquots of reaction mixtures were transferred into triplicate wells of opaque 96 well plates (Costar), and residual enzyme activity was measured with an fmax fluorescence micro plate reader (Molecular Devices) by monitoring hydrolysis of a fluorogenic substrate Boc-Arg-Val-Arg-Arg-MCA. Data were graphically analyzed (KaleidaGraph) with an equation developed by Green and Work (1953). Site-directed mutagenesis at P2 and P6 of eglin c generated temporary inhibitors (Table 3) and exhausted possibility to improve affinity further with this approach.

secreted, soluble furin [3] = target: T1, secreted, soluble furin; test: enzyme inhibition, purified variant
Protocol: as §1

secreted, soluble Kex2 [4] = target: T2, secreted, soluble Kex2; test: enzyme inhibition, purified variant; remark: listed apart in the source
secreted, soluble furin [5] = target: T1, secreted, soluble furin; test: enzyme inhibition, purified variant; remark: listed apart in the source
human PC7 = target: T3, human PC7 (human, UniProt Q16549 142-667, limits assumed); test: enzyme inhibition, purified variant
T3 sequence (looked up): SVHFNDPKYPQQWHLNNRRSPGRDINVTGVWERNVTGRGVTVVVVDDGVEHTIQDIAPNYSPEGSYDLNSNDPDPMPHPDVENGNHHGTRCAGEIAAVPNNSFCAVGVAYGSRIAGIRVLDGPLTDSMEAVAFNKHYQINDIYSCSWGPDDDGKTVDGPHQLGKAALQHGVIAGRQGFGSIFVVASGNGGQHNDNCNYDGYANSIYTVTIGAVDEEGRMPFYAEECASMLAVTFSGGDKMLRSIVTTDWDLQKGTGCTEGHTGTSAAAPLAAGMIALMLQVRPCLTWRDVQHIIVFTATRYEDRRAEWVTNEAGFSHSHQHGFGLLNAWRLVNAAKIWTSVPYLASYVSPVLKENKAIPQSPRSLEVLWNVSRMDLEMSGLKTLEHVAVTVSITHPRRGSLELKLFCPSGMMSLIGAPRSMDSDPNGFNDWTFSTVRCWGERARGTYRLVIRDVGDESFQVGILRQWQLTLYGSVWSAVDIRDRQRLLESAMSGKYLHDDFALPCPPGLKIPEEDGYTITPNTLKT

secreted, soluble Kex2 [6] = target: T2, secreted, soluble Kex2; test: equilibrium enzyme inhibition
Protocol: (§2) Thus, R1-eglin refers to substitution of Arg at position P1.
(§3) Affinities of eglin variants with secreted, soluble Kex2 (hereafter “Kex2”; Brenner, C. and Fuller, R. S. (1992) Proc. Natl. Acad. Sci. USA 89: 922-926) and secreted, soluble furin (hereafter, “furin”; Bravo, D. A. et al (1994) J. Biol. Chem. 269: 25830-25837; and Komiyama & Fuller (2000) Biochemistry 39: 15156-15165) were measured by incubating variants with the enzymes (˜0.5 to 2.0 nM) for 45 min to 1 h at 21° C. in one of two enzyme assay buffers. For Kex2, the buffer was 200 mM Bistris (pH 7.27) containing 1 mM CaCl₂ and 0.1% Triton X-100; and for furin, the buffer was 20 mM NaMES (pH 7.0) containing 1 mM CaCl₂ and 0.1% Triton X-100 for furin.

secreted, soluble furin [7] = target: T1, secreted, soluble furin; test: equilibrium enzyme inhibition
Protocol: as §2, §3

secreted, soluble Kex2 [8] = target: T2, secreted, soluble Kex2; test: equilibrium enzyme inhibition, fluorogenic substrate
Protocol: as §1

secreted, soluble furin [9] = target: T1, secreted, soluble furin; test: as above
Protocol: as §1

secreted, soluble Kex2 [10] = target: T2, secreted, soluble Kex2; test: affinity of purified variants, enzyme inhibition

T1 sequence (P09958 108-715 limits assumed): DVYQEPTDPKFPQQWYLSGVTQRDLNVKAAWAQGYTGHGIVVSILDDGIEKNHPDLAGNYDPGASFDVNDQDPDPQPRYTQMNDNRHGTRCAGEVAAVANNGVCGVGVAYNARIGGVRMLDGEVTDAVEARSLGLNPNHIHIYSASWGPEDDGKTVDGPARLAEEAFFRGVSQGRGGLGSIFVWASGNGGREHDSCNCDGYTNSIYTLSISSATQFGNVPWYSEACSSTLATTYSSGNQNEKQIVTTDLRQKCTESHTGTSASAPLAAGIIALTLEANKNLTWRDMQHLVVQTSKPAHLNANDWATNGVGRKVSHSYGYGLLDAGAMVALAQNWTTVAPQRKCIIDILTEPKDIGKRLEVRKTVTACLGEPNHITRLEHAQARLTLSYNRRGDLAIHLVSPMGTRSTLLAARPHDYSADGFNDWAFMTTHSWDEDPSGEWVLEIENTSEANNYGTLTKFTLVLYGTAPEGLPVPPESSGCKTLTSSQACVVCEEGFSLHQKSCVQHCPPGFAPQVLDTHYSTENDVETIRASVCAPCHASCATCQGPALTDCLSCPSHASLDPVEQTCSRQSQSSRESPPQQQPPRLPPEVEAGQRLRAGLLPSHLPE

- binding result (secreted, soluble furin [1]): binds
B8: Asp33Ile-R4K1-eglin (designed binder)
chain: SMGSELKSFPEVVGKTVDQAREYFTLHYPQYIVYFLPEGSRVTKDLRYNRVRVFYNPGTNVVNHVPHVG

- binding result (secreted, soluble furin [1]): binds
- binding result (secreted, soluble Kex2 [10]): binds
B9: Glu39Gly-R4R1-eglin (designed binder)
chain: B8 chain with I32D, E38G, K44R

- binding result (secreted, soluble furin [1]): binds
- binding result (secreted, soluble Kex2 [10]): binds
B10: Glu39Ser-R4R1-eglin (designed binder)
chain: B8 chain with I32D, E38S, K44R

- binding result (secreted, soluble furin [1]): binds
B11: Tyr35Ile-R4R1-eglin (designed binder)
chain: B8 chain with I32D, Y34I, K44R

- binding result (secreted, soluble furin [1]): binds
- binding result (secreted, soluble Kex2 [10]): binds
B13: Glu39Cys-R4R1-eglin (designed binder)
chain: B8 chain with I32D, E38C, K44R

- binding result (secreted, soluble furin [1]): binds
- binding result (secreted, soluble Kex2 [10]): binds
B14: Glu39Pro-R4R1-eglin (designed binder)
chain: B8 chain with I32D, E38P, K44R

- binding result (secreted, soluble furin [1]): binds
B16: Asp33Gly-R4K1-eglin (designed binder)
chain: B8 chain with I32G

- binding result (secreted, soluble furin [1]): binds
- binding result (secreted, soluble Kex2 [10]): binds
B17: Glu39His-R4R1-eglin (designed binder)
chain: B8 chain with I32D, E38H, K44R

- binding result (secreted, soluble furin [1]): binds
- binding result (secreted, soluble Kex2 [10]): binds
B18: Glu39Tyr-R4R1-eglin (designed binder)
chain: B8 chain with I32D, E38Y, K44R

- binding result (secreted, soluble furin [1]): binds
B19: Gly40Ala-R4R1-eglin (designed binder)
chain: B8 chain with I32D, G39A, K44R

The remaining lines, values behind:

B1: Asn50Asp-R4K1-eglin (designed binder)
chain: B8 chain with I32D, N49D
- binding result (secreted, soluble furin [1]): binds

B2: Tyr49Ala-R4R1-eglin (designed binder)
chain: B8 chain with I32D, K44R, Y48A
notes: R4R1 template; N-terminal Met removed; also called Ala49-R4R1-
- Ki (secreted, soluble Kex2 [2]): 1 nM
- Ki ratio (to R4R1- template) (secreted, soluble Kex2 [2]): 1.1
- Ki (secreted, soluble furin [3]): 1.3 nM
- Ki ratio (to R4R1- template) (secreted, soluble furin [3]): 0.526
- fold increase in affinity (relative to R4R1-eglin) (secreted, soluble furin [3]): ~2 fold
- Ki (secreted, soluble Kex2 [4]): 1 nM
- Ki (secreted, soluble furin [5]): 1.8 nM
- Ki (human PC7): 2.9 nM

B3: M4K1-eglin (designed binder)
chain: B8 chain with I32D, R41M
notes: N-terminal Met removed
- fold decrease of Ka relative to M4R1-eglin (secreted, soluble Kex2 [6]): 13.2 fold
- fold decrease of Ka relative to M4R1-eglin (secreted, soluble furin [7]): 4.7 fold
- Ki (secreted, soluble Kex2 [8]): 4.5 nM
- Ki (secreted, soluble furin [9]): 17000 nM

B4: Gly40Pro-R4R1-eglin (designed binder)
chain: B8 chain with I32D, G39P, K44R
- binding result (secreted, soluble furin [1]): binds

B5: Ser49-R4R1-eglin (designed binder)
chain: B8 chain with I32D, K44R, Y48S
notes: R4R1 template; N-terminal Met removed
- Ki (secreted, soluble Kex2 [4]): 0.21 nM
- Ki (secreted, soluble furin [5]): 4.8 nM
- Ki (human PC7): 2.5 nM

B6: Asp33Val-R4K1-eglin (designed binder)
chain: B8 chain with I32V
notes: R4K1 template; N-terminal Met removed
- Ki (secreted, soluble Kex2 [2]): 1.2 nM
- Ki ratio (to R4K1- template) (secreted, soluble Kex2 [2]): 0.476
- Ki (secreted, soluble furin [3]): 17 nM
- Ki ratio (to R4K1- template) (secreted, soluble furin [3]): 0.455

B7: Leu47Val-R4R1-eglin (designed binder)
chain: B8 chain with I32D, K44R, L46V
- binding result (secreted, soluble furin [1]): binds

B12: Met49-R4R1-eglin (designed binder)
chain: B8 chain with I32D, K44R, Y48M
notes: as for B5
- Ki (secreted, soluble Kex2 [4]): 1 nM
- Ki (secreted, soluble furin [5]): 1.6 nM
- Ki (human PC7): 1.4 nM

B15: Trp49-R4R1-eglin (designed binder)
chain: B8 chain with I32D, K44R, Y48W
notes: as for B5
- Ki (secreted, soluble Kex2 [4]): 1.2 nM
- Ki (secreted, soluble furin [5]): 10 nM
- Ki (human PC7): 0.47 nM

B20: R4-eglin (designed binder)
chain: B8 chain with I32D, K44L
notes: N-terminal Met removed; also called R4L1-eglin
- fold increase in affinity relative to L1-eglin (secreted, soluble Kex2 [6]): 5 fold
- fold enhancement of affinity relative to L1-eglin (secreted, soluble furin [7]): 2 to 3 fold
- Ki (secreted, soluble Kex2 [8]): 100000 nM
- Ki (secreted, soluble furin [9]): 56000 nM

B21: Leu37Gly-R4K1-eglin (designed binder)
chain: B8 chain with I32D, L36G
notes: as for B6
- Ki (secreted, soluble Kex2 [2]): 1.6 nM
- Ki ratio (to R4K1- template) (secreted, soluble Kex2 [2]): 0.625
- Ki (secreted, soluble furin [3]): 29 nM
- Ki ratio (to R4K1- template) (secreted, soluble furin [3]): 0.769

B22: Glu49-R4R1-eglin (designed binder)
chain: B8 chain with I32D, K44R, Y48E
notes: as for B5
- Ki (secreted, soluble Kex2 [4]): 0.036 nM
- Ki (secreted, soluble furin [5]): 0.53 nM
- Ki (human PC7): 2.9 nM
